B1: IgG with canine IgGB Fc variant N434H, A426Y (antibody)
heavy: EVQLVESGGDLVAPSQSLSITCTVSGMSLTSNSISWVRQPPGRGLEWLGTIWSNGGTDYTDAVKGRFTISRDNAKNTVYLQMNSLRAEDTAMYYCAQIYYYDADYLHWYFDFWGQGTLVTVSSASTTAPSVFPLAPSCGSTSGSTVALACLVSGYFPEPVTVSWNSGSLTSGVHTFPSVLQSSGLYSLSSMVTVPSSRWPSETFTCNVAHPASKTKVDKPVPKRENGRVPRPPDCPKCPAPEAAGGPSVFIFPPKPKDTLLIARTPEVTCVVVDLDPEDPEVQISWFVDGKQMQTAKTQPREEQFNGTYRVVSVLPIGHQDWLKGKQFTCKVNNKALPSPIERTISKARGQAHQPSVYVLPPSREELSKNTVSLTCLIKDFFPPDIDVEWQSNGQQEPESKYRTTPPQLDEDGSYFLYSKLSVDKSRWQRGDTFICYVMHEALHHHYTQESLSHSPG
light: EIVMTQSPASLSASQEEKVTITCRASEGISNNLAWYQQKPGQAPKLLIHATSSLQTGVPSRFSGSGSGTDFTLTISSLQPEDFATYYCQQGYQFPLTFGQGTKVEIKRNDAQPAVYLFQPSPDQLHTGSASVVCLLNSFYPKDINVKWKVDGVIQDTGIQESVTEQDKDSTYSLSSTLTMSSTEYLSHELYSCEITHKSLPSTLIKSFQRSECQRVD
notes: Full chains; canine IgGB constant domain with MALA mutations; variable domains of WO 2023/97275
B2: IgG with canine IgGB Fc variant L252Y, A426L (antibody)
heavy: B1 heavy with L261Y, Y437L, H445N
light: B1 light
notes: as for B1
B3: IgG with canine IgGB Fc variant N434H, A426W (antibody)
heavy: B1 heavy with Y437W
light: B1 light
notes: as for B1
B4: IgG with canine IgGB Fc variant N434H, A426F (antibody)
heavy: B1 heavy with Y437F
light: B1 light
notes: as for B1
B5: IgG with canine IgGB Fc variant N434H, T286W (antibody)
heavy: B1 heavy with T295W, Y437A
light: B1 light
notes: as for B1
B6: IgG with canine IgGB Fc variant N434H, A426L (antibody)
heavy: B1 heavy with Y437L
light: B1 light
notes: as for B1
B7: IgG with canine IgGB Fc variant L252Y, T286L (antibody)
heavy: B1 heavy with L261Y, T295L, Y437A, H445N
light: B1 light
notes: as for B1
B8: IgG with canine IgGB Fc variant N434H (antibody)
heavy: B1 heavy with Y437A
light: B1 light
notes: as for B1
B9: IgG with canine IgGB Fc variant N434H, T286F (antibody)
heavy: B1 heavy with T295F, Y437A
light: B1 light
notes: as for B1
B10: IgG with canine IgGB Fc variant L252Y, A426H (antibody)
heavy: B1 heavy with L261Y, Y437H, H445N
light: B1 light
notes: as for B1
B11: IgG with canine IgGB Fc variant N434H, T286Y (antibody)
heavy: B1 heavy with T295Y, Y437A
light: B1 light
notes: as for B1
B12: IgG with canine IgGB Fc variant N434H, T286L (antibody)
heavy: B1 heavy with T295L, Y437A
light: B1 light
notes: as for B1
B13: IgG with wild-type canine IgGB Fc (antibody)
heavy: B1 heavy with Y437A, H445N
light: B1 light
notes: Full chains; canine IgGB constant domain with MALA mutations; variable domains of WO 2023/97275; also called Wild-type Fc

Residue numbers refer to the chain shown, from its start. Numbers in names are those of the source.

In one assay the target is T1, canine FcRn (soluble large subunit p51 isoform X2 with 6xHis-tag, co-expressed with canine … (canine)).
T1 construct: Heterodimer made by co-expression in CHO cells, purified on HISTRAP FF, >95% pure by SEC; Both entries hold a 19-residue signal peptide at the N-terminus that should be removed (residues 1-19); also called FcRn complex
T1 chain: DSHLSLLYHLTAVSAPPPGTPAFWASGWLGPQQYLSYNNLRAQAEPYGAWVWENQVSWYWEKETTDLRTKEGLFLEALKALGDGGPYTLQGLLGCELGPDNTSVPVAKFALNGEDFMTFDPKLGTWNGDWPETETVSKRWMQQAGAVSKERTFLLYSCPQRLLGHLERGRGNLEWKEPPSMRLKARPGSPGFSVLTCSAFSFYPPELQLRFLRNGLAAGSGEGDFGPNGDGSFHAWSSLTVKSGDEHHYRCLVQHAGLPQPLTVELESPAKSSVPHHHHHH
T1 b2m: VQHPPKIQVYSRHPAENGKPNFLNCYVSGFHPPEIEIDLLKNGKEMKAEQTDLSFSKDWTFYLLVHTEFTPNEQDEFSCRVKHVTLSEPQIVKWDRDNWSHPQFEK
Description: SPR, IgG on protein L chip, FcRn in flow, pH 7.4, steady state fit. The protocol:
(§1) The canine FcRn binding experiments at pH 5.9 and pH 7.4 were completed on a BIACORE™ T200 instrument. A Series S Protein L Sensor chip (Cytiva, Cat. No. BR29205137) was used to capture the antibody variants via the kappa (κ) light chain. The canine variants were captured onto the protein L chip at a flow rate of 10 μL/min for 60 seconds. Approximately 250 RUs of the variants were captured. For the low pH binding condition, 1×PBX-P+ (Cytiva, Cat. No. 28995084) was adjusted to pH 5.9. The canine FcRn was flowed over the sensor chip at 30 μL/min for 120 seconds contact time and 600 seconds dissociation time. Regeneration of the flow cells was completed by flowing over 10 mM glycine, pH 1.7 at 30 μL/min for 30 seconds. The data were evaluated by the BIACORE™ T200 Evaluation software (version 3.2.1) by fitting to a 1:1 kinetic interaction model.
A subset of the Fc variants was tested for binding to canine FcRn at pH 7.4. For these experiments, 1×PBX-P+ (Cytiva, Cat. No. 28995084) was adjusted to pH 7.4. […] In addition, the pH 7.4 data were evaluated by the BIACORE™ T200 Evaluation software (version 3.2.1) by fitting to steady state affinity model. The kinetic binding data for the variants at pH 7.4 along with the binding data at pH 5.9 for these variants are shown in Table 7 below.
(In general: SPR reads the build-up and loss of mass on a sensor chip optically.)
Broadly, the Kd is the equilibrium constant for the complex coming apart. The low end stands for tighter binding, the high end for weaker binding. Turning to B1, binding was put at a Kd of 1050 nM.

B2: binding was characterised by a dissociation constant (Kd) of 713 nM.

Regarding B3, the Kd was determined as 1790 nM.

Molecule B4 displayed a Kd of 1380 nM. The Kd values of the last two molecules are within 1.5-fold of each other.

B5: the equilibrium dissociation constant (Kd) is 2070 nM.

Molecule B6 registered a Kd of 2030 nM.

Molecule B7 came in with a Kd of 2620 nM.

Molecule B8 showed a Kd of 5400 nM.

B9 displayed a Kd of 2370 nM. This Kd is about 2.3-fold lower than that of the molecule before.

Turning to B10, binding was put at a Kd of 388 nM.

On to B11, for which the Kd came out at 2170 nM.

Consider B12, for which the Kd is 3450 nM.

In a further assay the target is T1, canine FcRn (soluble large subunit p51 …). Description: SPR, IgG on protein L chip, FcRn in flow, pH 5.9, kinetic data. The protocol:
as §1
What is called koff is a measure of how fast the partners let go of each other. Low readings indicate slow dissociation, high ones fast dissociation. For orientation: kon means the rate constant with which the complex forms. A higher kon goes with faster complex formation. Turning to B1, the Kd is 10.9 nM, the koff amounted to 0.0252 s⁻¹ and the kon was found to be 2.31e+06 M⁻¹ s⁻¹.

For B2, the Kd was determined as 6.41 nM, the koff stood at 0.012 s⁻¹ and the kon stood at 1.87e+06 M⁻¹ s⁻¹.

B3 showed a Kd of 14.5 nM, a koff of 0.0406 s⁻¹ and a kon of 2.79e+06 M⁻¹ s⁻¹.

With B4, the dissociation constant Kd came out at 11.8 nM, the koff was 0.0296 s⁻¹ and the kon was 2.5e+06 M⁻¹ s⁻¹.

For the molecule B5, the Kd turned out to be 11.5 nM, the koff stood at 0.0321 s⁻¹ and the kon was determined as 2.78e+06 M⁻¹ s⁻¹.

With B6, the Kd came to 18.9 nM, the koff came to 0.0492 s⁻¹ and the kon is 2.61e+06 M⁻¹ s⁻¹.

Take B7: the affinity, expressed as Kd, was 18.2 nM; the koff came out at 0.0237 s⁻¹; the kon turned out to be 1.31e+06 M⁻¹ s⁻¹.

In turn, B8 displayed a Kd of 55.3 nM, a koff of 0.097 s⁻¹ and a kon of 1.75e+06 M⁻¹ s⁻¹.

Consider B9, for which the affinity, expressed as Kd, was 14.4 nM; the koff came to 0.0361 s⁻¹; the kon is 2.52e+06 M⁻¹ s⁻¹.

For the molecule B10, the Kd was found to be 3.76 nM, the koff is 0.00598 s⁻¹ and the kon was 1.59e+06 M⁻¹ s⁻¹.

Molecule B11 showed a Kd of 15.7 nM, a koff of 0.0318 s⁻¹ and a kon of 2.04e+06 M⁻¹ s⁻¹.

For the molecule B12, the Kd was 21.3 nM, the koff worked out at 0.0518 s⁻¹ and the kon worked out at 2.44e+06 M⁻¹ s⁻¹.

The target is the same in another assay. Kind of assay: SPR, IgG on protein L chip, FcRn in flow, pH 5.9, 1:1 fit; pH 5.9, 1:1 kinetic fit. The protocol:
as §1
In turn, B13 showed a Kd of 231 nM, a koff of 0.0927 s⁻¹ and a kon of 285000 M⁻¹ s⁻¹.

For another assay the target is unchanged. Description: SPR, IgG on protein L chip, FcRn in flow, pH 5.9, 1:1 fit. The protocol: as §1
Consider B1, for which the Kd came out at 10.9 nM, the koff came out at 0.0252 s⁻¹ and the kon is 2.31e+06 M⁻¹ s⁻¹.

Consider B2, for which the Kd is 6.41 nM, the koff turned out to be 0.012 s⁻¹ and the on-rate (kon) came to 1.87e+06 M⁻¹ s⁻¹.

Molecule B3 registered a Kd of 14.5 nM, a koff of 0.0406 s⁻¹ and a kon of 2.79e+06 M⁻¹ s⁻¹.

The molecule B4 came in with a Kd of 11.8 nM, an off-rate (koff) of 0.0296 s⁻¹ and a kon of 2.5e+06 M⁻¹ s⁻¹.

Molecule B5 registered a Kd of 11.5 nM, a koff of 0.0321 s⁻¹ and a kon of 2.78e+06 M⁻¹ s⁻¹.

Molecule B6 came in with a Kd of 18.9 nM, a koff of 0.0492 s⁻¹ and a kon of 2.61e+06 M⁻¹ s⁻¹.

Molecule B7 had a Kd of 18.2 nM, a koff of 0.0237 s⁻¹ and a kon of 1.31e+06 M⁻¹ s⁻¹.

B8: the Kd was found to be 55.3 nM, the koff was found to be 0.097 s⁻¹ and the kon amounted to 1.75e+06 M⁻¹ s⁻¹.

In the case of B9, the Kd stood at 14.4 nM, the koff was 0.0361 s⁻¹ and the kon amounted to 2.52e+06 M⁻¹ s⁻¹.

The molecule B10 yielded a Kd of 3.76 nM, a koff of 0.00598 s⁻¹ and a kon of 1.59e+06 M⁻¹ s⁻¹.

B11 had a Kd of 15.7 nM, a koff of 0.0318 s⁻¹ and a kon of 2.04e+06 M⁻¹ s⁻¹.

For B12, the equilibrium dissociation constant (Kd) stood at 21.3 nM, the koff worked out at 0.0518 s⁻¹ and the kon stood at 2.44e+06 M⁻¹ s⁻¹.

Source of the values: patent publication US20240209096A1 (INVETX, published 2024).
